Measured values from patent US20190375786A1, “STABLE PEPTIDES AND METHODS OF USE THEREOF” (Fred Hutchinson Cancer Research Center, priority 2016, published 2019).

Assays:
[1] = Circular dichroism thermal stability, heating 20° C. to 95° C.; assay type: physicochemical; conditions: 10 mM phosphate buffer pH 7.4; heated 20° C. to 95° C.
Protocol: (§1) Protein secondary structures were assessed using Circular Dichrosim (CD). CD spectra were measured with a Jasco J-720W spectropolarimeter using a 1.0 mm path length cell. Protein samples in 10 mM phosphate buffer (pH=7.4) were at 25-30 μM protein concentration. Samples were analyzed at wavelength ranges of […]. Data were expressed in terms of relative ellipticity [θ]; (mdeg). To determine thermal stability of proteins, samples were subjected to incremental increase in temperature at a ramp of 2° C./min from 20° C. to 95° C. Stability and protein unfolding were monitored at 220 and 215 for α-helix and β-sheet secondary structures, respectively. Data are expressed in terms of relative ellipticity [θ], reported in mdeg. For SEQ ID NO: 43 and its point mutant variants, no changes to the α-helix-dominated structure were observed upon heating up to 95° C. […] Additionally, protein melting temperature (Tm) determination was performed by monitoring protein unfolding using SYPRO Orange dye (Molecular Probes). In brief, 0.1 mg/mL protein sample in 20 μL total volume PBS buffer were mixed with 24, of 10× SYPRO Orange dye. Dye intercalation into the hydrophobic protein core following protein unfolding was assayed using the C1000 Touch Thermal Cycler with CFX96 Deep Well Real-Time System (BioRad). Samples were heated from 20° C. to 95° C. with stepwise increments of 0.5° C. per minute and a 5 sec hold step for every point, followed by fluorescence reading. Tm were calculated by analyzing the derivatives of Relative florescence Units (RFU). FIG. 17D illustrates this SYPRO Orange melting assay of Peptides.

[2] = SYPRO Orange melting assay; assay type: physicochemical; conditions: heating from 20° C. to 95° C.
Protocol: as §1

GSPDEYIERAKECCKKQDIQCCLRIFDESKDPNVMLICLFCW [SEQ ID NO: 43]
CD secondary structure signature before (Pre) and after (Post) incubation at 95° C. [1]: identical | melting temperature (Tm) [2]: no melting temperature could be determined
